The source of these data is patent US20200223906A1 (Adimab, published 2020).

Bounds are passed on as bounds.

Sequences and labels used below:
B1: ADI-18929 (antibody, V domains shown)
VH: QVQLVQSGGGLVKPGGSLRLSCAASGFTFNDYYMNWIRQAPGKGLEWVSYISSSGETKYYADSVKGRFTISRDNAKNSLYLEMNSLRVEDTAVYYCARDAVIVVGPVAVHYQYYADVWGKGTTVTVSS
VL: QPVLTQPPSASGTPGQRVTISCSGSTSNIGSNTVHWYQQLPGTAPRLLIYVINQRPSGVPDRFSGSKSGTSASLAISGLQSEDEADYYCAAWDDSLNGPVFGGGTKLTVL
B2: ADI-18925 (antibody, V domains shown)
VH: QVQLVESGGGVVQPGRSLRLSCAASGFPFSLYAMHWVRQAPGKGLEWVAFISYDGSNKYYADSVKGRFTISRDSSKNTLYLQMDSLTPEDTAVYYCAKPIVGPTTGYFDYWGPGTLVTVSS
VL: EIVLTQSPATLSLSPGERATLSCRASQSVSSYLAWYQQKPGQAPRLLIYDASNRATGIPARFSGSGSGTDFTLTISSLEPEDFAVYYCQQRSNWYTFGQGTKVEIK
B3: ADI-18901 (antibody, V domains shown)
VH: EVQLVESGAEVKRPGASVKISCKASEYAFTAHYLHWVRQAPDQGLEWMGWISPKSGGTNYAQKFHGRVSMTSDTSISTVYMELSSLTSDDTAVYYCARSSLVGASPNFDFWGQGTLVTVSS
VL: QSVLTQPPSVSAAPGQRVTISCSGSSSNIGNNYVSWYQQLPGTTPKVLIYDNNQRPSGIPDRFSGSKSGTSATLAISGLQTGDEAVYYCGTWDASLSAAMVFGGGTKLTVL
B4: ADI-18965 (antibody, V domains shown)
VH: QVQLVQSGAEVKKPGASVKISCKASGYPFSSYPMHWVRQAPGQRLEWMGWINVDNENTKYSWKFRGRVTITRDTSASTVYMELSSLISEDTAVYYCGRDWDGAIRVLDYWGQGTLVTVSS
VL: DIVMTQTPDSLAVSLGERATITCKSSQSVLFSSDNKNYLAWYQQKPGQPPKLLIYWASIRESGVPDRFGGSGSGTHFTLTITSVQAADVAVYYCQQYYGNFPTFGQGTRLEIK
B5: ADI-18905 (antibody, V domains shown)
VH: EVQLVESGPTLVKPSETLSLTCVVSGGSVYRSSNYWAWIRQPPGKGLEWIGSVYHSGNPYSNPSLQSRVSVSIDTSKNQFSLKLYSVTAADSAIYYCACKRADADDVDYVAGLTGFPWYFDVWGRGTLVTVSS
VL: EIVLTQSPSTLSASVGDRVTITCRASQSISSWLAWYQQKPGKTPKLLIYKASTLESGVPSRFSGSGSGTEFTLTISSLQPDDFATYYCQQYHVYFPLTFGGGTKVEIK
B6: ADI-18940 (antibody, V domains shown)
VH: QVQLVQSGAGVKKPGASVRVSCTASGYTFTDYFINWVRQAPGGGLEWMGWVNPLSGATRYAQNFAGRVTMTTDTSITTGYLDLRNLRLDDTAVYFCASQSSPYTPGAMDVWGQGTTVTVSS
VL: DIVMTQSPSSLSASVGDRVSITCRTSQTISGYISWYQKKPGKAPKLLIYAASNMYSGVPSRFSGSESGTDFTLTITSLQPEDFATYFCQLNSGALFTFGPGTKVDIK
notes: full-length IgG from yeast
B7: ADI-18931 (antibody, V domains shown)
VH: EVQLVESGGGLQKPGRSLRLSCSASGFTFGDYAMSWFRQAPGKGLEWVGFIRSKAYVGTAEYAASVKGRFTISRDDSKSIAYLHMNSLKTEDTAVYYCTRDDILTGFYDRSYYYGIHVWGQGTTVTVSS
VL: EIVMTQSPVTLSVSPGERATLSCRASQSVNSNLAWYQKKPGQAPRLLIYSASTRATGVPARFSGSGSGTEFTLTVSSLQSEDFAVYYCQQYDNWPPYTFGQGTKVEIK
notes: full-length IgG from yeast; also called Antibody Number 285; Ab # 285

The first assay concerns the target RSV F protein of subtype A (strain A2) on recombinant mKate-RSV virus (Respiratory syncytial virus subtype A …, UniProt P03420 26-574). Nature of the assay: cell-based or functional assay.
As to B1, the “Neut IC50 (µg/ml) subtype A” value amounted to 0.261 µg/mL.

B2: the “Neut IC50 (µg/ml) subtype A” value is more than 10 µg/mL.

With B3, the “Neut IC50 (µg/ml) subtype A” value came out at 5.65 µg/mL.

For the molecule B4, the “Neut IC50 (µg/ml) subtype A” value turned out to be 3.02 µg/mL.

B5: the “Neut IC50 (µg/ml) subtype A” value stood at 0.685 µg/mL.

For B6, the “Neut IC50 (µg/ml) subtype A” value worked out at 0.023 µg/mL.

In the case of B7, the “Neut IC50 (µg/ml) subtype A” value is more than 10 µg/mL.

A further assay addresses RSV F protein of subtype B (18537) on recombinant mKate-RSV virus (Respiratory syncytial virus subtype B …, UniProt P13843 26-574). Nature of the assay: cell-based or functional assay.
On to B1, for which the “Neut IC50 (µg/ml) subtype B” value worked out at 0.369 µg/mL.

As to B2, the “Neut IC50 (µg/ml) subtype B” value was more than 10 µg/mL.

For the molecule B3, the “Neut IC50 (µg/ml) subtype B” value was 5.76 µg/mL.

For B4, the “Neut IC50 (µg/ml) subtype B” value was 6.89 µg/mL.

Regarding B5, the “Neut IC50 (µg/ml) subtype B” value came to 3.68 µg/mL.

As for B6, the “Neut IC50 (µg/ml) subtype B” value was determined as 0.063 µg/mL.

In the case of B7, the “Neut IC50 (µg/ml) subtype B” value is more than 10 µg/mL.

The target of the next assay is T1, RSV F subtype B, furin-cleaved ectodomain stabilized in the prefusion conformation (DS-Cav1) (Respiratory syncytial virus subtype B).
T1 construct: extracellular domain; Trimeric soluble antigen; also called Prefusion subtype B
Kind of assay: BLI, IgG on AHQ sensor, 100 nM antigen. Background: In BLI a coated tip is dipped into the sample, and binding shifts an interference pattern.
As to B6, the Kd (in general, the free concentration of one partner at which half of the binding sites on the other are occupied at equilibrium, for simple one-to-one binding) amounted to 1.56 nM.

B7 yielded a Kd of 0.488 nM.
